Laboratory results: the Human Domainome abundance scans (Beltran et al. 2025)
± gives the uncertainty stated by the source.

B1: Endonuclease CUE2, residues 9 to 47; numbered along this chain, P36075 (parent)
chain: HESKLSILMDMFPAISKSKLQVHLLENNNDLDLTIGLLL

Variants of: B1
Assay: abundance fitness (aPCA) (normalised: wild type 0, dead -1); higher = more abundant; growth selection in yeast, the domain comes from the species named
Conditions: Saccharomyces cerevisiae (strain ATCC 204508 / S288c)

Variant	abundance fitness
HESKLSILMDMFEAISKSKLQVHLLENNNDLDLTIGLLL	-0.349 ± 0.083
HESKLSILMDMFWAISKSKLQVHLLENNNDLDLTIGLLL	-1.04 ± 0.14
HESKLSILMDMFQAISKSKLQVHLLENNNDLDLTIGLLL	-0.752 ± 0.13
HESKLSILMDMFHAISKSKLQVHLLENNNDLDLTIGLLL	-1.06 ± 0.3
HESKLSILMDMFKAISKSKLQVHLLENNNDLDLTIGLLL	-0.781 ± 0.16
HESKLSILMDMFMAISKSKLQVHLLENNNDLDLTIGLLL	-0.72 ± 0.16
HESKLSILMDMFCAISKSKLQVHLLENNNDLDLTIGLLL	-0.67 ± 0.18
HESKLSILMDMFTAISKSKLQVHLLENNNDLDLTIGLLL	-0.861 ± 0.18
HESKLSILMDMFRAISKSKLQVHLLENNNDLDLTIGLLL	-0.951 ± 0.11
HESKLSILMDMFAAISKSKLQVHLLENNNDLDLTIGLLL	-0.602 ± 0.11
HESKLSILMDMFIAISKSKLQVHLLENNNDLDLTIGLLL	-0.804 ± 0.17
HESKLSILMDMFGAISKSKLQVHLLENNNDLDLTIGLLL	-0.834 ± 0.07
HESKLSILMDMFSAISKSKLQVHLLENNNDLDLTIGLLL	-0.806 ± 0.12
HESKLSILMDMFFAISKSKLQVHLLENNNDLDLTIGLLL	-0.868 ± 0.37
HESKLSILMDMFDAISKSKLQVHLLENNNDLDLTIGLLL	-0.898 ± 0.18
HESKLSILMDMFLAISKSKLQVHLLENNNDLDLTIGLLL	-0.795 ± 0.1
HESKLSILMDMFPARSKSKLQVHLLENNNDLDLTIGLLL	-0.343 ± 0.043
HESKLSILMDMFPAGSKSKLQVHLLENNNDLDLTIGLLL	-0.735 ± 0.055
HESKLSILMDMFPALSKSKLQVHLLENNNDLDLTIGLLL	-0.08 ± 0.063
HESKLSILMDMFPAWSKSKLQVHLLENNNDLDLTIGLLL	-0.023 ± 0.038
HESKLSILMDMFPAFSKSKLQVHLLENNNDLDLTIGLLL	0.163 ± 0.18
HESKLSILMDMFPASSKSKLQVHLLENNNDLDLTIGLLL	-0.214 ± 0.057
HESKLSILMDMFPATSKSKLQVHLLENNNDLDLTIGLLL	-0.115 ± 0.25
HESKLSILMDMFPAESKSKLQVHLLENNNDLDLTIGLLL	-0.017 ± 0.042
HESKLSILMDMFPAHSKSKLQVHLLENNNDLDLTIGLLL	0.022 ± 0.062
HESKLSILMDMFPADSKSKLQVHLLENNNDLDLTIGLLL	-0.293 ± 0.11

Variant	abundance fitness
HESKLSILMDMFPAVSKSKLQVHLLENNNDLDLTIGLLL	-0.115 ± 0.048
HESKLSILMDMFPAPSKSKLQVHLLENNNDLDLTIGLLL	-1 ± 0.2
HESKLSILMDMFPAKSKSKLQVHLLENNNDLDLTIGLLL	-0.142 ± 0.054
HESKLSILMDMFPAQSKSKLQVHLLENNNDLDLTIGLLL	-0.081 ± 0.048
HESKLSILMDMFPAMSKSKLQVHLLENNNDLDLTIGLLL	-0.078 ± 0.055
HESKLSILMDMFPAICKSKLQVHLLENNNDLDLTIGLLL	-0.133 ± 0.14
HESKLSILMDMFPAIPKSKLQVHLLENNNDLDLTIGLLL	0.025 ± 0.051
HESKLSILMDMFPAIQKSKLQVHLLENNNDLDLTIGLLL	-0.057 ± 0.06
HESKLSILMDMFPAIAKSKLQVHLLENNNDLDLTIGLLL	-0.026 ± 0.043
HESKLSILMDMFPAIDKSKLQVHLLENNNDLDLTIGLLL	-0.048 ± 0.068
HESKLSILMDMFPAILKSKLQVHLLENNNDLDLTIGLLL	-0.37 ± 0.046
HESKLSILMDMFPAIGKSKLQVHLLENNNDLDLTIGLLL	-0.167 ± 0.032
HESKLSILMDMFPAIMKSKLQVHLLENNNDLDLTIGLLL	-0.395 ± 0.055
HESKLSILMDMFPAINKSKLQVHLLENNNDLDLTIGLLL	-0.171 ± 0.074
HESKLSILMDMFPAIHKSKLQVHLLENNNDLDLTIGLLL	0.384 ± 0.22
HESKLSILMDMFPAIRKSKLQVHLLENNNDLDLTIGLLL	-0.15 ± 0.032
HESKLSILMDMFPAIWKSKLQVHLLENNNDLDLTIGLLL	-0.654 ± 0.11
HESKLSILMDMFPAIFKSKLQVHLLENNNDLDLTIGLLL	-0.045 ± 0.1
HESKLSILMDMFPAIKKSKLQVHLLENNNDLDLTIGLLL	-0.114 ± 0.055
HESKLSILMDMFPAIVKSKLQVHLLENNNDLDLTIGLLL	-0.29 ± 0.048
HESKLSILMDMFPAIEKSKLQVHLLENNNDLDLTIGLLL	-0.09 ± 0.042
HESKLSILMDMFPAITKSKLQVHLLENNNDLDLTIGLLL	-0.179 ± 0.074
HESKLSILMDMFPAISKSCLQVHLLENNNDLDLTIGLLL	-0.248 ± 0.096
HESKLSILMDMFPAISKSALQVHLLENNNDLDLTIGLLL	-0.051 ± 0.035
HESKLSILMDMFPFISKSKLQVHLLENNNDLDLTIGLLL	-0.033 ± 0.089
HESKLSILMDMFPRISKSKLQVHLLENNNDLDLTIGLLL	-0.018 ± 0.036

Variant	abundance fitness
HESKLSILMDMFPPISKSKLQVHLLENNNDLDLTIGLLL	-0.383 ± 0.076
HESKLSILMDMFPSISKSKLQVHLLENNNDLDLTIGLLL	0.068 ± 0.046
HESKLSILMDMFPDISKSKLQVHLLENNNDLDLTIGLLL	-0.118 ± 0.13
HESKLSILMDMFPWISKSKLQVHLLENNNDLDLTIGLLL	-0.047 ± 0.034
HESKLSILMDMFPVISKSKLQVHLLENNNDLDLTIGLLL	-0.079 ± 0.047
HESKLSILMDMFPEISKSKLQVHLLENNNDLDLTIGLLL	0.068 ± 0.039
HESKLSILMDMFPTISKSKLQVHLLENNNDLDLTIGLLL	-0.163 ± 0.22
HESKLSILMDMFPLISKSKLQVHLLENNNDLDLTIGLLL	-0.053 ± 0.036
HESKLSILMDMFPMISKSKLQVHLLENNNDLDLTIGLLL	-0.133 ± 0.061
HESKLSILMDMFPGISKSKLQVHLLENNNDLDLTIGLLL	0.012 ± 0.031
HESKLSILMDMFPCISKSKLQVHLLENNNDLDLTIGLLL	-0.093 ± 0.068
HESKLSILMDMFPQISKSKLQVHLLENNNDLDLTIGLLL	0.012 ± 0.045
HESKLSILMDMFPAISASKLQVHLLENNNDLDLTIGLLL	-0.156 ± 0.036
HESKLSILMDMFPAISGSKLQVHLLENNNDLDLTIGLLL	-0.255 ± 0.044
HESKLSILMDMFPAISQSKLQVHLLENNNDLDLTIGLLL	0.013 ± 0.1
HESKLSILMDMFPAISFSKLQVHLLENNNDLDLTIGLLL	-0.343 ± 0.069
HESKLSILMDMFPAISLSKLQVHLLENNNDLDLTIGLLL	-0.316 ± 0.057
HESKLSILMDMFPAISSSKLQVHLLENNNDLDLTIGLLL	-0.129 ± 0.048
HESKLSILMDMFPAISMSKLQVHLLENNNDLDLTIGLLL	-0.307 ± 0.11
HESKLSILMDMFPAISYSKLQVHLLENNNDLDLTIGLLL	-0.077 ± 0.15
HESKLSILMDMFPAISPSKLQVHLLENNNDLDLTIGLLL	-0.082 ± 0.039
HESKLSILMDMFPAISDSKLQVHLLENNNDLDLTIGLLL	-0.286 ± 0.1
HESKLSILMDMFPAISCSKLQVHLLENNNDLDLTIGLLL	-0.356 ± 0.12
HESKLSILMDMFPAISHSKLQVHLLENNNDLDLTIGLLL	-0.085 ± 0.086
HESKLSILMDMFPAISTSKLQVHLLENNNDLDLTIGLLL	-0.263 ± 0.065
HESKLSILMDMFPAISESKLQVHLLENNNDLDLTIGLLL	-0.122 ± 0.04

Variant	abundance fitness
HESKLSILMDMFPAISWSKLQVHLLENNNDLDLTIGLLL	-0.471 ± 0.082
HESKLSILMDMFPAISVSKLQVHLLENNNDLDLTIGLLL	-0.196 ± 0.042
HESKLSILMDMFPAISISKLQVHLLENNNDLDLTIGLLL	-0.387 ± 0.11
HESKLSILMDMFPAISRSKLQVHLLENNNDLDLTIGLLL	-0.074 ± 0.037
HESKLSILMDMFPAISKFKLQVHLLENNNDLDLTIGLLL	0.056 ± 0.094
HESKLSILMDMFPAISKMKLQVHLLENNNDLDLTIGLLL	-0.11 ± 0.057
HESKLSILMDMFPAISKWKLQVHLLENNNDLDLTIGLLL	-0.178 ± 0.044
HESKLSILMDMFPAISKTKLQVHLLENNNDLDLTIGLLL	0.015 ± 0.046
HESKLSILMDMFPAISKVKLQVHLLENNNDLDLTIGLLL	0.154 ± 0.036
HESKLSILMDMFPAISKPKLQVHLLENNNDLDLTIGLLL	-0.214 ± 0.075
HESKLSILMDMFPAISKDKLQVHLLENNNDLDLTIGLLL	-0.164 ± 0.15
HESKLSILMDMFPAISKQKLQVHLLENNNDLDLTIGLLL	0.082 ± 0.099
HESKLSILMDMFPAISKKKLQVHLLENNNDLDLTIGLLL	-0.03 ± 0.077
HESKLSILMDMFPAISKRKLQVHLLENNNDLDLTIGLLL	-0.038 ± 0.033
HESKLSILMDMFPAISKLKLQVHLLENNNDLDLTIGLLL	-0.103 ± 0.048
HESKLSILMDMFPAISKAKLQVHLLENNNDLDLTIGLLL	-0.063 ± 0.036
HESKLSILMIMFPAISKSKLQVHLLENNNDLDLTIGLLL	-0.12 ± 0.067
HESKLSILMSMFPAISKSKLQVHLLENNNDLDLTIGLLL	-0.299 ± 0.056
HESKLSILMVMFPAISKSKLQVHLLENNNDLDLTIGLLL	-0.336 ± 0.044
HESKLSILMKMFPAISKSKLQVHLLENNNDLDLTIGLLL	-0.191 ± 0.048
HESKLSILMWMFPAISKSKLQVHLLENNNDLDLTIGLLL	-0.691 ± 0.092
HESKLSILMPMFPAISKSKLQVHLLENNNDLDLTIGLLL	-0.587 ± 0.12
HESKLSILMNMFPAISKSKLQVHLLENNNDLDLTIGLLL	-0.086 ± 0.055
HESKLSILMHMFPAISKSKLQVHLLENNNDLDLTIGLLL	-0.145 ± 0.11
HESKLSILMQMFPAISKSKLQVHLLENNNDLDLTIGLLL	-0.183 ± 0.064
HESKLSILMLMFPAISKSKLQVHLLENNNDLDLTIGLLL	-0.441 ± 0.051

Variant	abundance fitness
HESKLSILMDWFPAISKSKLQVHLLENNNDLDLTIGLLL	-0.413 ± 0.048
HESKLSILMDQFPAISKSKLQVHLLENNNDLDLTIGLLL	-0.077 ± 0.037
HESKLSILMDAFPAISKSKLQVHLLENNNDLDLTIGLLL	-0.16 ± 0.049
HESKLSILMDSFPAISKSKLQVHLLENNNDLDLTIGLLL	-0.421 ± 0.15
HESKLSILMDVFPAISKSKLQVHLLENNNDLDLTIGLLL	-0.447 ± 0.058
HESKLSILMDGFPAISKSKLQVHLLENNNDLDLTIGLLL	-0.746 ± 0.074
HESKLSILMDDFPAISKSKLQVHLLENNNDLDLTIGLLL	-0.758 ± 0.12
HESKLSILMDLFPAISKSKLQVHLLENNNDLDLTIGLLL	-0.184 ± 0.083
HESKLSILMDEFPAISKSKLQVHLLENNNDLDLTIGLLL	-0.274 ± 0.051
HESKLSILMDNFPAISKSKLQVHLLENNNDLDLTIGLLL	-0.209 ± 0.26
HESKLSILMDHFPAISKSKLQVHLLENNNDLDLTIGLLL	-0.297 ± 0.14
HESKLSILMDPFPAISKSKLQVHLLENNNDLDLTIGLLL	-0.748 ± 0.28
HESKLSILMDMLPAISKSKLQVHLLENNNDLDLTIGLLL	-0.644 ± 0.075
HESKLSILMDMTPAISKSKLQVHLLENNNDLDLTIGLLL	-0.446 ± 0.12
HESKLSILMDMEPAISKSKLQVHLLENNNDLDLTIGLLL	-0.884 ± 0.12
HESKLSILMDMKPAISKSKLQVHLLENNNDLDLTIGLLL	-0.966 ± 0.2
HESKLSILMDMSPAISKSKLQVHLLENNNDLDLTIGLLL	-0.808 ± 0.12
HESKLSILMDMMPAISKSKLQVHLLENNNDLDLTIGLLL	-0.548 ± 0.19
HESKLSILMDMWPAISKSKLQVHLLENNNDLDLTIGLLL	-0.596 ± 0.097
HESKLSILMDMVPAISKSKLQVHLLENNNDLDLTIGLLL	-0.9 ± 0.1
HESKLSILMDMDPAISKSKLQVHLLENNNDLDLTIGLLL	-1.07 ± 0.28
HESKLSILMDMGPAISKSKLQVHLLENNNDLDLTIGLLL	-0.905 ± 0.15
HESKLSILMDMPPAISKSKLQVHLLENNNDLDLTIGLLL	-0.611 ± 0.39
HESKLSILMDMRPAISKSKLQVHLLENNNDLDLTIGLLL	-0.865 ± 0.11
